The values that follow come from patent US20220411536A1 (NUMAB THERAPEUTICS, published 2022).

The term EC50 denotes the midpoint of the concentration-response curve. The low end stands for greater potency, the high end for weaker potency. Usually Kd stands for the free concentration of one partner at which half of the binding sites on the other are occupied at equilibrium, for simple one-to-one binding. The koff is the first-order rate constant of dissociation. In general, kon refers to the rate constant with which the complex forms. In general, IC50 refers to the midpoint of a concentration-inhibition curve. A higher IC50 goes with a need for much substance.

Test [1] has as its target T1, human HER2 expressed on cells (SK-OV3, MCF-7, HCC1954, HCC827) (human, UniProt P04626 23-1255).
T1 construct: whole, on cells
Kind of test: flow cytometry, SK-OV3 cells, competitor 50 nM trastuzumab.

For test [2], the target named is T1, human HER2 expressed on cells (SK-OV3, …). The test can be described thus: flow cytometry, SK-OV3 cells, no competitor. In general terms: A flow cytometer gives signals particle by particle.
Test [3] shares this target. Kind of test: flow cytometry, IFNy-stimulated HCC827 cells.
Test [4] has as its target unidentified antigen on CHO PD-L1 cells bound by pertuzumab (the filing speculates hamster HER2). Kind of test: flow cytometry, CHO PD-L1 cells (residual binding).
The target in test [5] is T1, human HER2 expressed on cells (SK-OV3, …). The test can be described thus: flow cytometry, IFNy-stimulated HCC1954 cells.
In test [6] the target is T2, CD3e on Jurkat PD-1 NFAT reporter T cells or on T cells of human PBMCs (human, UniProt P07766 23-207). The test can be described thus: cell-based or functional assay.
Test [7] concerns the target T3, recombinant human Her2 ECD (SinoBiological, cat. 10004-HCCH) (human, UniProt P04626 23-652).
T3 construct: extracellular domain; bought protein
The test can be described thus: SPR, human Her-2.

Test [8] concerns the target T1, human HER2 expressed on cells (SK-OV3, …). The test can be described thus: flow cytometry, MCF-7 cells.
For test [9] the target is unchanged. The test can be described thus: flow cytometry, SK-OV3 cells.
The target in test [10] is T4, recombinant human CD3E ECD (SinoBiological, cat. 10977-H08H) (human, UniProt P07766 23-126).
T4 construct: extracellular domain; bought protein; also called CD3s
T4 sequence (P07766 23-126): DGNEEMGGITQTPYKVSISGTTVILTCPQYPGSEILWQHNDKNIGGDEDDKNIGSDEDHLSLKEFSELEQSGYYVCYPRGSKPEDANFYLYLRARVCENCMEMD
The test can be described thus: SPR, immobilised CD3e ECD, two-state model; overall KD of the two-state fit. A general note: In SPR one partner is held on a chip, and binding of the other changes the refractive index at the surface.

The target of test [11] is T2, CD3e on Jurkat PD-1 NFAT reporter T …. Kind of test: cell-based or functional assay. The source holds these as a separate data set.
Test [12] has the same target. The test can be described thus: cell-based or functional assay. This is another data set of the same source.
Test [13] has as its target T5, Fc-tagged human PD-L1 extracellular domain (SinoBiological, cat. 10084-H02H) (human, UniProt Q9NZQ7 19-238).
T5 construct: extracellular domain; also called hPD-L1; not shown: Fc tag of the bought protein
The test can be described thus: SPR, captured Fc-PD-L1 ECD.

In test [14] the target is T6, human serum albumin (human, UniProt P02768 25-609).
T6 construct: also called HSA; human SA
The test can be described thus: SPR, immobilised HSA, pH 5.5.

For test [15], the target named is T7, recombinant human IL-23R (custom-made by Trenzyme) (human, UniProt Q5VWK5 24-355).
T7 sequence (looked up): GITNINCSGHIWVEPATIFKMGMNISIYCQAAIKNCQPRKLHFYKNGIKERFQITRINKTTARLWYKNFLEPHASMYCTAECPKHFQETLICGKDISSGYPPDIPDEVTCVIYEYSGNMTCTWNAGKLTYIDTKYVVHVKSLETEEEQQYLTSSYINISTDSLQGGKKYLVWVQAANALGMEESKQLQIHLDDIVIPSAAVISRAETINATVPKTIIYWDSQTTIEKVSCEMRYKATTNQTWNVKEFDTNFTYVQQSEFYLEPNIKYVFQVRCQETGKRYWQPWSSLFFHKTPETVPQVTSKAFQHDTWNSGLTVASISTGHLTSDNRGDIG
Kind of test: SPR, immobilised IL-23R.

For test [16], the target named is T4, recombinant human CD3E ECD …. The test can be described thus: SPR, immobilised CD3e ECD, two-state model.
The target is the same in test [17]. The test can be described thus: SPR, immobilised CD3e ECD, two-state model (ka1); ka1, first step of the two-state fit.
The target of test [18] is T8, mouse serum albumin (mouse, UniProt P07724 25-608).
T8 construct: also called MSA; mouse SA
T8 sequence (P07724 25-608 limits assumed): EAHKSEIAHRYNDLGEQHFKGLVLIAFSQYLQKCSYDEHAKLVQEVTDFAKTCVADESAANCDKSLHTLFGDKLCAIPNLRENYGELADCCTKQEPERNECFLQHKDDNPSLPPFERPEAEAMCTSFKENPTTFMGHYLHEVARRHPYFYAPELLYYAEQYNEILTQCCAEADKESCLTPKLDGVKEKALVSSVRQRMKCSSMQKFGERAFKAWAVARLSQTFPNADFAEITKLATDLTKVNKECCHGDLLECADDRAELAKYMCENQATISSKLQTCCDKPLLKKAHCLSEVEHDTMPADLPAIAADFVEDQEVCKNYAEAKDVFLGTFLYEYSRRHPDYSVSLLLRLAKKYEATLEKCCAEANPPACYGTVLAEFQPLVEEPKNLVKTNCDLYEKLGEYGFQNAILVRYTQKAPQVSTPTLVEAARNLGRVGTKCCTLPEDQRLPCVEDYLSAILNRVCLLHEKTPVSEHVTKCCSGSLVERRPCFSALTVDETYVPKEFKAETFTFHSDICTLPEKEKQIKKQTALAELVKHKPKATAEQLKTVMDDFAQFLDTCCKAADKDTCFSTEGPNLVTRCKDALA
Kind of test: SPR, immobilised MSA, pH 5.5.

In test [19] the target is T4, recombinant human CD3E ECD …. Kind of test: SPR, immobilised CD3e ECD, two-state model (kd1); kd1, first step of the two-state fit.
For test [20], the target named is T3, recombinant human Her2 ECD …. Kind of test: SPR, immobilised Her2 ECD.
The target in test [21] is T9, human PD-L1 expressed on cells (CHO-PD-L1, HCC1954, HCC827) (human, UniProt Q9NZQ7 19-290).
T9 construct: whole, on cells; also called hPD-L1; PD-L1 expressing cells
Kind of test: flow cytometry with human SA, inhibition of PD-1 binding to HCC1954 cells.

Test [22] deals with CD137 on transgenic NF-kB Jurkat reporter cells (Homo sapiens (Human), UniProt Q07011 24-255). The test can be described thus: cell-based or functional assay.
Test [23] concerns the target T9, human PD-L1 expressed on cells …. Kind of test: flow cytometry competition in presence of human SA: binding of biotinylated PD-1 to HCC1954 cells (Her2+++, PD-L1); blocked ligand PD-1 [HCC1954].

B1: PRO1895 (multispecific antibody)
chain 1: DIQMTQSPSSLSASVGDRVTITCKASQDVSIGVAWYQQKPGKAPKLLIYSASYRYTGVPSRFSGSGSGTDFTLTISSLQPEDFATYYCQQYYIYPYTFGCGTKVTVLGGGGGSGGGGSGGGGSGGGGSEVQLVESGGGLVQPGGSLRLSCAASGFTFTDYTMDWVRQAPGKCLEWVADVNPNSGGSIYNQRFKGRFTLSVDRSKNTLYLQMNSLRAEDTAVYYCARNLGPSFYFDYWGQGTLVTVSSGGGGSGGGGSDVVMTQSPSSLSASVGDRVTITCQASQIISSRSAWYQQKPGQPPKLLIYQASKLASGVPSRFSGSGSGTDFTLTISSLQPEDFATYYCQCTYIDSNFGAFGCGTKLTVLGGGSGGSDIQMTQSPSSLSASVGDRVTITCQSSQSVFSNNYLAWFQQKPGQSPKRLIYSASTLASGVPSRFSGSGSGTDFTLTISSLQPEDFATYYCLGSYACSSADCYVFGTGTKVTVLG
chain 2: DIQMTQSPSSLSASVGDRVTITCQASQSINDYLAWYQQKPGKAPKLLIYKASTLASGVPSRFSGSGSGTDFTLTISSLQPEDFATYYCQAAYIITDIDNVFGTGTKVTVLGGGGGSGGGGSGGGGSGGGGSQVQLQESGPGLVKPSETLSLTCKVSGFSFSSGYDMCWIRQPPGKGLEWIGCVVAGSVDITYYASWAKGRVTISVDSSKNQFSLKLSSVTAADTAVYYCARKDAYSDAFNLWGQGTLVTVSSGGGGSGGGGSEVQLVESGGGLVQPGGSLRLSCAASGFSLSSYDMSWVRQAPGKGLAWIGASYASGPTYYASWAKGRFTISRDNSKNTVYLQMNSLRAEDTATYFCARGGWTGTSHSNIWGQGTLVTVSSGGGSGGGSEVQLVESGGGLVQPGGSLRLSCAASGFSFSSSYWICWVRQAPGKCLEWVGCVFTGDGTTYYASWAKGRFTISRDNSKNTVYLQMNSLRAEDTATYFCARPVSVYYYGMDLWGQGTLVTVSS
notes: also called pertuzumab-based MATCH4
B1: the EC50 in test [1] is 4.55 nM; in test [2], 2.02 nM; in test [3], 1.34 nM; in test [4], 97.3 nM; in [5], 17.3 nM; in test [8], 5.35 nM. The molecule also returned a concentration for a half-maximal effect (EC50) in test [9] of 1.87 nM. In test [6], the “T cell activation IC50, PBMC with HCC827 cells” value is 0.153 nM. In addition, the “T cell activation IC50, PBMC with HCC1954 cells” value in test [6] is 0.027 nM. In addition, in [7], the Kd amounted to 0.414 nM. Besides, the koff in [7] came to 8.11e-05 s⁻¹. For the same molecule, the kon in test [7] was 196000 M⁻¹ s⁻¹.

B2: PRO1557 (multispecific antibody)
chain 1: not shown
chain 2: DIQMTQSPSSLSASVGDRVTITCQASENIYSFLAWYQQKPGKAPKLLIYSASKLAAGVPSRFSGSGSGTDFTLTISSLQPEDFATYYCQQTNRYSNPDIYNVFGTGTKVTVLGGGGGSGGGGSGGGGSGGGGSEVQLVESGGGLVQPGGSLRLSCAASGIDFNSNYYMCWVRQAPGKGLEWIGCIYVGSHVNTYYANWAKGRFTISRDNSKNTVYLQMNSLRAEDTAVYYCATSGSSVLYFKFWGQGTLVTVSSGGGGSGGGGSEVQLVESGGGLVQPGGSLRLSCAASGFSLSSYDMSWVRQAPGKGLAWIGASYASGPTYYASWAKGRFTISRDNSKNTVYLQMNSLRAEDTATYFCARGGWTGTSHSNIWGQGTLVTVSSGGGSGGGSEVQLVESGGGLVQPGGSLRLSCAASGFSFSSSYWICWVRQAPGKCLEWVGCVFTGDGTTYYASWAKGRFTISRDNSKNTVYLQMNSLRAEDTATYFCARPVSVYYYGMDLWGQGTLVTVSS
For the molecule B2, in [10], the Kd stood at 8.43 nM. Also, in test [11], the “target cell killing IC50, 16 h, HCC1954 cells” value is 0.00279 nM and the “target cell killing IC50, 16 h, MCF-7 cells” value is 0.0181 nM. Moreover, in test [12], the “IC50, NFAT reporter, HCC1954 cells” value was determined as 0.391 nM; the “IC50, NFAT reporter, HCC1954 cells, + PRO1434” value was determined as 0.671 nM; the “IC50, NFAT reporter, HCC1954 cells, + nivolumab” value was determined as 0.319 nM; the “rel. max. activation vs PRO1497, NFAT reporter, HCC1954 cells” value came to 82%. Moreover, the binding result in [13] is “no binding”. In addition, in test [14], the Kd is 0.498 nM, the koff is 0.00012 s⁻¹ and the kon stood at 240000 M⁻¹ s⁻¹. Further, in test [15], the Kd is 0.931 nM, the koff is 0.000514 s⁻¹ and the kon was determined as 552000 M⁻¹ s⁻¹. Moreover, in test [16], the KD1 turned out to be 18.7 nM and the kd2 is 0.00356 s⁻¹. In addition, in test [17], the kon came to 283000 M⁻¹ s⁻¹. In [18], this molecule returned a Kd of 11.2 nM, a koff of 0.00107 s⁻¹ and a kon of 95600 M⁻¹ s⁻¹. In addition, in test [19], the koff was 0.00529 s⁻¹. Besides, in [20], the Kd was determined as 0.318 nM, the koff was 6.35e-05 s⁻¹ and the kon is 200000 M⁻¹ s⁻¹.

B3: PRO1993 (multispecific antibody)
chain 1: DIQMTQSPSSLSASVGDRVTITCKASQDVSIGVAWYQQKPGKAPKLLIYSASYRYTGVPSRFSGSGSGTDFTLTISSLQPEDFATYYCQQYYIYPYTFGCGTKVTVLGGGGGSGGGGSGGGGSGGGGSEVQLVESGGGLVQPGGSLRLSCAASGFTFTDYTMDWVRQAPGKCLEWVADVNPNSGGSIYNQRFKGRFTLSVDRSKNTLYLQMNSLRAEDTAVYYCARNLGPSFYFDYWGQGTLVTVSSGGGGSGGGGSDVVMTQSPSSLSASVGDRVTITCQASQIISSRSAWYQQKPGQPPKLLIYQASKLASGVPSRFSGSGSGTDFTLTISSLQPEDFATYYCQCTYIDSNFGAFGTGTKLTVLGGGSGGSDIQMTQSPSSLSASVGDRVTITCQASQSISNRLAWYQQKPGKAPKLLIYSASTLASGVPSRFSGSGSGTDFTLTISSLQPEDFATYYCQSTYYGNDGNAFGCGTKVTVLG
chain 2: DIQMTQSPSSLSASVGDRVTITCQASQSINDYLAWYQQKPGKAPKLLIYKASTLASGVPSRFSGSGSGTDFTLTISSLQPEDFATYYCQAAYIITDIDNVFGTGTKVTVLGGGGGSGGGGSGGGGSGGGGSQVQLQESGPGLVKPSETLSLTCKVSGFSFSSGYDMCWIRQPPGKGLEWIGCVVAGSVDITYYASWAKGRVTISVDSSKNQFSLKLSSVTAADTAVYYCARKDAYSDAFNLWGQGTLVTVSSGGGGSGGGGSEVQLVESGGGLVQPGGSLRLSCAASGFSFSANYYPCWVRQAPGKCLEWIGCIYGGSSDITYDANWTKGRFTISRDNSKNTVYLQMNSLRAEDTAVYYCARSAWYSGWGGDLWGQGTLVTVSSGGGSGGGSEVQLVESGGGLVQPGGSLRLSCAASGFSFSSSYWICWVRQAPGKGLEWVGCVFTGDGTTYYASWAKGRFTISRDNSKNTVYLQMNSLRAEDTATYFCARPVSVYYYGMDLWGQGTLVTVSS
B3 showed a 50% inhibitory concentration (IC50) in test [21] of 0.167 µg/mL. In addition, in test [22], the “EC50, NFkB reporter gene assay, HCC827 cells” value was determined as 0.287 nM and the “EC50, NFkB reporter gene assay, HCC1954 cells” value is 0.168 nM. Besides, the “IC50 (read off the curve)” value in test [23] is about 2 nM.
